# B1: FBXO3 (parent)
# chain: HDPLWRRHCKKYWLISEEEKTQKN
# Variants of: B1
# Assay: protein stability index of a GFP-peptide fusion (GPS, HEK-293T) (PSI 1-6); higher = more stable
# Settings: c terminus: a fixed tail appended
# 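Also: lentivirally expressed fusions sorted by FACS into six bins by GFP to DsRed ratio, PSI derived from sequencing read proportions per bin multiplied by bin number.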
row,Variant,protein stability index
1,HDPLWRRHCKKYWLISEEEKEQKN [T21E],3.31
2,HDPLWRRHCKKYWLISEEEKVQKN [T21V],2.99
3,HDPLWRRHCKKYWLISEEEKTQDN [K23D],3.95
4,HDPLWRRHCKKYWLISEEEKTQLN [K23L],2.94
5,HDPLWRRHCKKYWLISEEEKTQHN [K23H],3.24
6,HDPLWRRHCKKYWLISEEEKTQYN [K23Y],2.91
7,HDPLWRRHCKKYWLISEEEKTQSN [K23S],3.38
8,HDPLWRRHCKKYWLISEEEKTQGN [K23G],3.65
9,HDPLWRRHCKKYWLISEEEKTQAN [K23A],3.34
10,HDPLWRRHCKKYWLISEEEKTQVN [K23V],3.6
11,HDNLWRRHCKKYWLISEEEKTQKN [P3N],3.49
12,HDMLWRRHCKKYWLISEEEKTQKN [P3M],3.33
13,HDWLWRRHCKKYWLISEEEKTQKN [P3W],2.44
14,HDLLWRRHCKKYWLISEEEKTQKN [P3L],3.12
15,HDTLWRRHCKKYWLISEEEKTQKN [P3T],3.84
16,HDYLWRRHCKKYWLISEEEKTQKN [P3Y],2.75
17,HDELWRRHCKKYWLISEEEKTQKN [P3E],3.45
18,HDCLWRRHCKKYWLISEEEKTQKN [P3C],3.02
19,HDPLWRRHCKKFWLISEEEKTQKN [Y12F],3.22
20,HDPLWRRHCKKGWLISEEEKTQKN [Y12G],3.74
21,HDPLWRRHCKKEWLISEEEKTQKN [Y12E],4.48
22,HDPLWRRHCKKDWLISEEEKTQKN [Y12D],4.63
23,HDPLWRRHCKKCWLISEEEKTQKN [Y12C],3.4
24,HDPLWRRHCKKRWLISEEEKTQKN [Y12R],3.59

row,Variant,protein stability index
1,HDPLWRRHCKKAWLISEEEKTQKN [Y12A],3.44
2,HDPLWRRHCKKSWLISEEEKTQKN [Y12S],3.91
3,HDPLWRRHCKKKWLISEEEKTQKN [Y12K],3.89
4,HDPLWRRHCKKNWLISEEEKTQKN [Y12N],3.58
5,HDPLWRRHCKKPWLISEEEKTQKN [Y12P],3.78
6,HDPLWRRHCKKWWLISEEEKTQKN [Y12W],3.12
7,HDPLWRRHCKKYWLISAEEKTQKN [E17A],3.41
8,HDPLWRRHCKKYWLISDEEKTQKN [E17D],3.48
9,HDPLWRRHCKKYWLISGEEKTQKN [E17G],3
10,HDPLWRRHCKKYWLISTEEKTQKN [E17T],3.1
11,HDPLWRRHCKKYWLISYEEKTQKN [E17Y],2.62
12,HDPLWRRHCKKYWLISLEEKTQKN [E17L],2.47
13,HDPLWRRHCKKYWLISSEEKTQKN [E17S],3.26
14,HDPLWRRHCKKYWLISPEEKTQKN [E17P],3.52
15,HDPLWRRHCKKYWLISWEEKTQKN [E17W],2.37
16,HDPLWRRHCKKYWLISREEKTQKN [E17R],3
17,HDPLWRRHCVKYWLISEEEKTQKN [K10V],2.57
18,HDPLWRRHCIKYWLISEEEKTQKN [K10I],2.02
19,HDPLWRRHCHKYWLISEEEKTQKN [K10H],3.27
20,HDPLWRRHCPKYWLISEEEKTQKN [K10P],4.06
21,HDPLWRRHCGKYWLISEEEKTQKN [K10G],3.41
22,HDPLWRRHCNKYWLISEEEKTQKN [K10N],3.51
23,HDPLWRRHCWKYWLISEEEKTQKN [K10W],2.95
24,HDPLWRRHCCKYWLISEEEKTQKN [K10C],2.27

row,Variant,protein stability index
1,HDPLWRRHCFKYWLISEEEKTQKN [K10F],2.77
2,HDPLWRRHCKKYWLINEEEKTQKN [S16N],3.5
3,HDPLWRRHCKKYWLIAEEEKTQKN [S16A],3.21
4,HDPLWRRHCKKYWLIREEEKTQKN [S16R],3.27
5,HDPLWRRHCKKYWLIVEEEKTQKN [S16V],2.73
6,HDPLWRRHCKKYWLIGEEEKTQKN [S16G],2.95
7,HDPLWRRHCKKYWLIQEEEKTQKN [S16Q],2.99
8,HDPLWRRHCKKYWLIPEEEKTQKN [S16P],3.77
9,HDPLWRRHCKKYWLISEEEKTQKT [N24T],3.47
10,HDPLWRRHCKKYWLISEEEKTQKA [N24A],2.9
11,HDPLWRRHCKKYWLISEEEKTQKW [N24W],2.47
12,HDPLWRRHCKKYWLISEEEKTQKK [N24K],2.79
13,HDPLWRRHCKKYWLISEEEKTQKV [N24V],3.02
14,HDPLWRRHCKKYWLISEEEKTQKQ [N24Q],3.43
15,HDPLWRRHCKKYWLISEEEKTQKH [N24H],2.99
16,HDPLWRRHCKKYWLYSEEEKTQKN [I15Y],3.21
17,HDPLWRRHCKKYWLKSEEEKTQKN [I15K],3.47
18,HDPLWRRHCKKYWLNSEEEKTQKN [I15N],3.67
19,HDPLWRRHCKKYWLRSEEEKTQKN [I15R],4.68
20,HDPLWRRHCKKYWLWSEEEKTQKN [I15W],3.19
21,HDPLWRRHCKKYWLPSEEEKTQKN [I15P],3.68
22,HKPLWRRHCKKYWLISEEEKTQKN [D2K],2.58
23,HCPLWRRHCKKYWLISEEEKTQKN [D2C],2.26
24,HLPLWRRHCKKYWLISEEEKTQKN [D2L],2.24

row,Variant,protein stability index
1,HWPLWRRHCKKYWLISEEEKTQKN [D2W],1.97
2,HAPLWRRHCKKYWLISEEEKTQKN [D2A],2.58
3,HFPLWRRHCKKYWLISEEEKTQKN [D2F],2.33
4,HVPLWRRHCKKYWLISEEEKTQKN [D2V],1.97
5,HQPLWRRHCKKYWLISEEEKTQKN [D2Q],2.91
6,HSPLWRRHCKKYWLISEEEKTQKN [D2S],1.81
7,HDPLWRRHCKAYWLISEEEKTQKN [K11A],3.6
8,HDPLWRRHCKDYWLISEEEKTQKN [K11D],3.12
9,HDPLWRRHCKQYWLISEEEKTQKN [K11Q],3.45
10,HDPLWRRHCKTYWLISEEEKTQKN [K11T],2.71
11,HDPLWRRHCKMYWLISEEEKTQKN [K11M],2.44
12,HDPLWRRHCKKYWLISEEEITQKN [K20I],2.58
13,HDPLWRRHCKKYWLISEEEGTQKN [K20G],3.51
14,HDPLWRRHCKKYWLISEEEMTQKN [K20M],3.03
15,HDPLWRRHCKKYWLISEEELTQKN [K20L],2.88
16,HDPLWRRHCKKYWLISEEEQTQKN [K20Q],3.66
17,HDPLWRRHCKKYWLISEEEVTQKN [K20V],3.29
18,HDPLWRRHCKKYWLISEEEYTQKN [K20Y],2.71
19,HDPLWRRHCKKYWLISEEERTQKN [K20R],3.38
20,HDPLWRRHCKKYWLISEEEATQKN [K20A],2.85
21,HDPLWRRSCKKYWLISEEEKTQKN [H8S],2.73
22,HDPLWRRLCKKYWLISEEEKTQKN [H8L],1.88

# From the supplement of paper PMC10567573
